Measurements reported in patent US20230346885A1 (published 2023).
Where a chain is given by its changes, count along the chain named. Values belong to the binder of their own block, whether it stands above or below them.

What was measured:
Experiment in all cases: binding, other
SLC30A8 peptide on HLA = molecular target: T1, SLC30A8 peptide on HLA (human)
T1 peptide: ILAVDGVLSV

SLC45A2 peptide on HLA [1] = molecular target: T2, SLC45A2 peptide on HLA (human)
T2 peptide: RLLGTEFQV

SMC1B peptide on HLA [2] = molecular target: T3, SMC1B peptide on HLA (human)
T3 peptide: KLQKEVVSI

TRPM1 peptide on HLA [3] = molecular target: T4, TRPM1 peptide on HLA (human)
T4 peptide: RLLEKHISL

SMC1B peptide on HLA [4] = molecular target: T5, SMC1B peptide on HLA (human)
T5 peptide: NIQELIHGA

SLC45A2 peptide on HLA [5] = molecular target: T6, SLC45A2 peptide on HLA (human)
T6 peptide: SLYSYFQKV

TRPM1 peptide on HLA [6] = molecular target: T7, TRPM1 peptide on HLA (human)
T7 peptide: RLGQGVPLV

XAGE1 peptide on HLA = molecular target: T8, XAGE1 peptide on HLA (human)
T8 peptide: ISQTPGINL

B1: TCR of SEQ ID NOs 553 and 554 (TCR, V domains shown)
Valpha: QKEVEQNSEPLSVPEGAIASLNCTYSDRGSQSFFWYRQYSGKSPELIMSIYSNGDKEDGRFTAQLNKASQYVSLLIRDSQPSDSATYLCAVNSQGGKLMFGQGTELSVKP
Vbeta: NAGVTQTPKFRVLKTGQSMTLQCAQDMNHNYMYWYRQDPGMGLRLIHYSVGEGTTAKGEVPDGYNVSRLKKQNFLLGLESAAPSQTSVYFCASSYAPWPGPYEQYVGPGTRLTVT
binding result (SLC30A8 peptide on HLA): recognises

B2: TCR of SEQ ID NOs 565 and 566 (TCR, V domains shown)
Valpha: KQEVTQIPAALSVPEGENLVLNCSFTDSAIYNLQWFRQDPGKGLTSLLLIQSSQREQTSGRLNASLDKSSGRSTLYIAASQPGDSATYLCAVDKAAGNKLTFGGGTRVLVKP
Vbeta: NAGVTQTPKFQVLKTGQSMTLQCAQDMNHNYMYWYRQDPGMGLRLIHYSVGAGITDQGEVPNGYNVSRSTTEDFPLRLLSAAPSQTSVYFCASKNWGTEAFFGQGTRLTVV
binding result (SLC45A2 peptide on HLA [1]): recognises

B3: TCR of SEQ ID NOs 591 and 592 (TCR, V domains shown)
Valpha: B2 Valpha with K94Q, A95D, A96S, N98Y, K99A, T101N, G104K, R107S, V108L, K111T
Vbeta: DTGVSQNPRHKITKRGQNVTFRCDPISEHNRLYWYRQTLGQGPEFLTYFQNEAQLEKSRLLSDRFSAERPKGSFSTLEIQRTEQGDSAMYLCASSLYRSYEQYFGPGTRLTVT
binding result (SMC1B peptide on HLA [2]): recognises

B4: TCR of SEQ ID NOs 587 and 588 (TCR, V domains shown)
Valpha: KQEVTQIPAALSVPEGENLVLNCSFTDSAIYNLQWFRQDPGKGLTSLLLIQSSQREQTSGRLNASLDKSSGRSTLYIAASQPGDSATYLCAVSPRSNDYKLSFGAGTTVTVRA
Vbeta: NAGVTQTPKFRILKIGQSMTLQCAQDMNHNYMYWYRQDPGMGLKLIYYSVGAGITDKGEVPNGYNVSRSTTEDFPLRLELAAPSQTSVYFCASSTGSSYNSPLHFGNGTRLTVT
binding result (SMC1B peptide on HLA [2]): recognises

B5: TCR of SEQ ID NOs 605 and 606 (TCR, V domains shown)
Valpha: KQEVTQIPAALSVPEGENLVLNCSFTDSAIYNLQWFRQDPGKGLTSLLLIQSSQREQTSGRLNASLDKSSGRSTLYIAASQPGDSATYLCAAATRNNTGKLIFGQGTTLQVKP
Vbeta: NAGVTQTPKFRILKIGQSMTLQCTQDMNHNYMYWYRQDPGMGLKLIYYSVGAGITDKGEVPNGYNVSRSTTEDFPLRLELAAPSQTSVYFCASSKSDLGGYTFGSGTRLTVV
binding result (TRPM1 peptide on HLA [3]): recognises

B6: TCR of SEQ ID NOs 563 and 564 (TCR, V domains shown)
Valpha: KQEVTQIPAALSVPEGENLVLNCSFTDSAIYNLQWFRQDPGKGLTSLLLIQSSQREQTSGRLNASLDKSSGRSTLYIAASQPGDSATYLCAVRPTEYGNKLVFGAGTILRVKS
Vbeta: NAGVTQTPKFRVLKTGQSMTLLCAQDMNHEYMYWYRQDPGMGLRLIHYSVGEGTTAKGEVPDGYNVSRLKKQNFLLGLESAAPSQTSVYFCASSNEGGGYTFGSGTRLTVV
binding result (SLC45A2 peptide on HLA [1]): recognises

B7: TCR of SEQ ID NOs 595 and 596 (TCR, V domains shown)
Valpha: KQEVTQIPAALSVPEGENLVLNCSFTDSAIYNLQWFRQDPGKGLTSLLLIQSSQREQTSGRLNASLDKSSGRSTLYIAASQPGDSATYLCAVKEGTDSWGKFQFGAGTQVVVTP
Vbeta: B6 Vbeta with N95Y, E96P, G97S, G98R, G99E, Y100A, T101F, S104Q
binding result (SMC1B peptide on HLA [4]): recognises

B8: TCR of SEQ ID NOs 597 and 598 (TCR, V domains shown)
Valpha: KQEVTQIPAALSVPEGENLVLNCSFTDSAIYNLQWFRQDPGKGLTSLLLIQSSQREQTSGRLNASLDKSSGRSTLYIAASQPGDSATYLCAVWSWGKLQFGAGTQVVVTP
Vbeta: B6 Vbeta with N95R, E96G, G97V, G98P, G99E, Y100V, T101F, S104Q
binding result (SMC1B peptide on HLA [4]): recognises

B9: TCR of SEQ ID NOs 573 and 574 (TCR, V domains shown)
Valpha: KQEVTQIPAALSVPEGENLVLNCSFTDSAIYNLQWFRQDPGKGLTSLLLIQSSQREQTSGRLNASLDKSSGRSTLYIAASQPGDSATYLCAVRGYSTLTFGKGTMLLVSP
Vbeta: NAGVTQTPKFQVLKTGQSMTLQCAQDMNHEYMSWYRQDPGMGLRLIHYSVGAGITDQGEVPNGYNVSRSTTEDFPLRLLSAAPSQTSVYFCASSRGQFTEAFFGQGTRLTVV
binding result (SLC45A2 peptide on HLA [5]): recognises

B10: TCR of SEQ ID NOs 569 and 570 (TCR, V domains shown)
Valpha: KQEVTQIPAALSVPEGENLVLNCSFTDSAIYNLQWFRQDPGKGLTSLLLIQSSQREQTSGRLNASLDKSSGRSTLYIAASQPGDSATYLCAVRDSWGKFQFGAGTQVVVTP
Vbeta: NAGVTQTPKFRVLKTGQSMTLLCAQDMNHEYMYWYRQDPGMGLRLIHYSVGEGTTAKGEVPDGYNVSRLKKQNFLLGLESAAPSQTSVYFCASSLGQGYGLAYDEQFFGPGTRLTVL
binding result (SLC45A2 peptide on HLA [5]): recognises

B11: TCR of SEQ ID NOs 603 and 604 (TCR, V domains shown)
Valpha: B10 Valpha
Vbeta: NAGVTQTPKFQVLKTGQSMTLQCAQDMNHNSMYWYRQDPGMGLRLIYYSASEGTTDKGEVPNGYNVSRLNKREFSLRLESAAPSQTSVYFCASSEWAWGLGTEAFFGQGTRLTVV
binding result (TRPM1 peptide on HLA [6]): recognises

B12: TCR of SEQ ID NOs 599 and 600 (TCR, V domains shown)
Valpha: B10 Valpha with R93S, D94G, F99L
Vbeta: NAGVTQTPKFRVLKTGQSMTLLCAQDMNHEYMYWYRQDPGMGLRLIHYSVGEGTTAKGEVPDGYNVSRSTTEDFPLRLLSAAPSQTSVYFCASSLMDRPGEQFFGPGTRLTVL
binding result (TRPM1 peptide on HLA [6]): recognises

B13: TCR of SEQ ID NOs 601 and 602 (TCR, V domains shown)
Valpha: B10 Valpha with R93T, F99L
Vbeta: NAGVTQTPKFRVLKTGQSMTLLCAQDMNHEYMYWYRQDPGMGLRLIHYSVGEGTTAKGEVPDGYNVSRLKKQNFLLGLESAAPSQTSVYFCASSYADTYEQYFGPGTRLTVT
binding result (TRPM1 peptide on HLA [6]): recognises

B14: TCR of SEQ ID NOs 609 and 610 (TCR, V domains shown)
Valpha: KQEVTQIPAALSVPEGENLVLNCSFTDSAIYNLQWFRQDPGKGLTSLLLIQSSQREQTSGRLNASLDKSSGRSTLYIAASQPGDSATYLCAVPAQGGSEKLVFGKGTKLTVNP
Vbeta: NAGVTQTPKFQVLKTGQSMTLQCAQDMNHEYMSWYRQDPGMGLKLIYYSVGAGITDKGEVPNGYNVSRSTTEDFPLRLESAAPSQTSVYFCASTESPYYGYTFGSGTRLTVV
binding result (TRPM1 peptide on HLA [3]): recognises

B15: TCR of SEQ ID NOs 593 and 594 (TCR, V domains shown)
Valpha: KQEVTQIPAALSVPEGENLVLNCSFTDSAIYNLQWFRQDPGKGLTSLLLIQSSQREQTSGRLNASLDKSSGRSTLYIAASQPGDSATYLCAVRPWGYNQGGKLIFGQGTELSVKP
Vbeta: NAGVTQTPKFQVLKTGQSMTLQCAQDMNHNSMYWYRQDPGMGLRLIYYSASEGTTDKGEVPNGYNVSRSTTEDFPLRLLSAAPSQTSVYFCASSYWGDTEAFFGQGTRLTVV
binding result (SMC1B peptide on HLA [4]): recognises

More lines, now with the values ahead:

binding result (SLC45A2 peptide on HLA [1]): recognises
B16: TCR of SEQ ID NOs 567 and 568 (TCR, V domains shown)
Valpha: KQEVTQIPAALSVPEGENLVLNCSFTDSAIYNLQWFRQDPGKGLTSLLLIQSSQREQTSGRLNASLDKSSGRSTLYIAASQPGDSATYLCAVSGGGADGLTFGKGTHLIIQP
Vbeta: NAGVTQTPKFRILKIGQSMTLQCTQDMNHNYMYWYRQDPGMGLKLIYYSVGAGITDQGEVPNGYNVSRLNKREFSLRLESAAPSQTSVYFCASSEEGWSNSPLHFGNGTRLTVT

binding result (TRPM1 peptide on HLA [3]): recognises
B17: TCR of SEQ ID NOs 607 and 608 (TCR, V domains shown)
Valpha: KQEVTQIPAALSVPEGENLVLNCSFTDSAIYNLQWFRQDPGKGLTSLLLIQSSQREQTSGRLNASLDKSSGRSTLYIAASQPGDSATYLCAVRGMNTGFQKLVFGTGTRLLVSP
Vbeta: NAGVTQTPKFQVLKTGQSMTLQCAQDMNHEYMSWYRQDPGMGLRLIHYSVGAGITDQGEVPNGYNVSRSTTEDFPLRLLSAAPSQTSVYFCASSPGVTSTEAFFGQGTRLTVV

binding result (XAGE1 peptide on HLA): recognises
B18: TCR of SEQ ID NOs 615 and 616 (TCR, V domains shown)
Valpha: QKEVEQNSGPLSVPEGAIASLSCTYSDRGSQSFFWYRQYSGKSPELIMSIYSNGDKEDGRFTAQLNKASQYVSLLIRDSQPSDSATYLCAVGAGGYNKLIFGAGTRLAVHP
Vbeta: NAGVTQTPKFRVLKTGQSMTLQCTQDMNHNYMYWYRQDPGMGLRLIHYSVGEGTTAKGEVPDGYNVSRSTTEDFPLRLLSAAPSQTSVYFCASRREGPLHFGNGTRLTVT

binding result (SLC30A8 peptide on HLA): recognises
B19: TCR of SEQ ID NOs 551 and 552 (TCR, V domains shown)
Valpha: KQEVTQIPAALSVPEGENLVLNCSFTDSAIYNLQWFRQDPGKGLTSLLLIQSSQREQTSGRLNASLDKSSGRSTLYIAASQPGDSATYLCAVTGNQFYFGTGTSLTVIP
Vbeta: NAGVTQTPKFRVLKTGQSMTLQCAQDMNHEYMYWYRQDPGMGLRLIHYSVGAGITDQGEVPNGYNVSRSTTEDFPLRLLSAAPSQTSVYFCASSTYPVWGGEKMFFGSGTQLSVL

binding result (SLC30A8 peptide on HLA): recognises
B20: TCR of SEQ ID NOs 555 and 556 (TCR, V domains shown)
Valpha: KQEVTQIPAALSVPEGENLVLNCSFTDSAIYNLQWFRQDPGKGLTSLLLIQSSQREQTSGRLNASLDKSSGRSTLYIAASQPGDSATYLCAVQTGANNLFFGTGTRLTVIP
Vbeta: B19 Vbeta with V12I, T15I, A24T, E30N, M104L

binding result (SLC45A2 peptide on HLA [5]): recognises
B21: TCR of SEQ ID NOs 571 and 572 (TCR, V domains shown)
Valpha: KQEVTQIPAALSVPEGENLVLNCSFTDSAIYNLQWFRQDPGKGLTSLLLIQSSQREQTSGRLNASLDKSSGRSTLYIAASQPGDSATYLCAALSYNTDKLIFGTGTRLQVFP
Vbeta: NAGVTQTPKFQVLKTGQSMTLQCAQDMNHNSMYWYRQDPGMGLRLIYYSASEGTTDKGEVPNGYNVSRLNKREFSLRLESAAPSQTSVYFCASRYSPYTEAFFGQGTRLTVV

binding result (SMC1B peptide on HLA [2]): recognises
B22: TCR of SEQ ID NOs 589 and 590 (TCR, V domains shown)
Valpha: QKEVEQNSGPLSVPEGAIASLNCTYSDRGSQSFFWYRQYSGKSPELIMSIYSNGDKEDGRFTAQLNKASQYVSLLIRDSQPSDSATYLCAVGGRDDKIIFGKGTRLHILP
Vbeta: NAGVTQTPKFQVLKTGQSMTLQCAQDMNHNSMYWYRQDPGMGLRLIYYSASEGTTDKGEVPNGYNVSRSTTEDFPLRLLSAAPSQTSVYFCASSYTDGVNSPLHFGNGTRLTVT
